# No end group written: not given here.
# T1: p300 BPΔR module (BRP 1048-1282 with the RING domain 1169-1241 replaced by a single glycine) (UniProt Q09472)
# T1 chain: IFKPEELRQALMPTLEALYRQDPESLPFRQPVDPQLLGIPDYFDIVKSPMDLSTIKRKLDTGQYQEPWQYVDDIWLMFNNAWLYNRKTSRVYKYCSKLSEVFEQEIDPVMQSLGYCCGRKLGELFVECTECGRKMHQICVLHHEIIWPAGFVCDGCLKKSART
# T2: p300 BRP module (bromodomain-RING-PHD), residues 1048-1282 (UniProt Q09472 1048-1282)
# T2 sequence: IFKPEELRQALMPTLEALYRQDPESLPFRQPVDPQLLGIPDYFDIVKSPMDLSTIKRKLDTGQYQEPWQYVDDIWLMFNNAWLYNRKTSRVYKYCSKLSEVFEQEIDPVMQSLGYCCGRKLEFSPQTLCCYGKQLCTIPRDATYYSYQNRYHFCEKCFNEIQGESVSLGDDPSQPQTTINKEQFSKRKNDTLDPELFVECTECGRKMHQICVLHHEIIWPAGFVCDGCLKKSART
# B1: 11-mer histone peptide H4 (10-20) with acetylated K12 and K16 (peptide)
# peptide: GLGK(Ac)GGAK(Ac)RHR
# B2: H3 K9acK14ac (1-20) peptide (peptide)
# chain: ARTKQTQRK(Ac)STGGK(Ac)APRKQL
# B3: H3 K14ac (1-20) peptide (peptide)
# chain: ARTKQTQRKSTGGK(Ac)APRKQL
# Legend:
# [1] = target: T1, p300 BPΔR module (BRP 1048-1282 with …); assay: crystal structure
# [2] = target: T2, p300 BRP module (bromodomain-RING-PHD), …; assay: ITC
Binder,binding result [1],Kd [2],stoichiometry N [2]
B1,binds,,
B2,,578 µM,1.06
B3,,1760 µM,1.13

# Source: article PMC6914384 (Nature, 2018)
